Assay [1] concerns the target T1, C10orf54 (antigen of the KD values in Table 42) (human, UniProt Q9H7M9 33-311, limits assumed).
T1 sequence: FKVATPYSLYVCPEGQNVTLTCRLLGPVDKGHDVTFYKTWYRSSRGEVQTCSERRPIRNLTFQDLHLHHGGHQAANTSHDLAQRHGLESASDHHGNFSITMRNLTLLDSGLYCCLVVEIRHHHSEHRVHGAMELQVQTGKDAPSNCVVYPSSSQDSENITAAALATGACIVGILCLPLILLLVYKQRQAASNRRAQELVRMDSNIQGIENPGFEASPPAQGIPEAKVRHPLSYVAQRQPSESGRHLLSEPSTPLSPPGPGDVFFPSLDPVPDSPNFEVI
The assay is described as follows: method and antigen form not stated; footnote: low affinity antibody.

In assay [2] the target is T2, chimeric C10orf54: human IgV with mouse STALK (construct CC5) (human/mouse chimera).
T2 construct: also called C10orf54 Construct 5; hsIGVmmSTALK
T2 chain: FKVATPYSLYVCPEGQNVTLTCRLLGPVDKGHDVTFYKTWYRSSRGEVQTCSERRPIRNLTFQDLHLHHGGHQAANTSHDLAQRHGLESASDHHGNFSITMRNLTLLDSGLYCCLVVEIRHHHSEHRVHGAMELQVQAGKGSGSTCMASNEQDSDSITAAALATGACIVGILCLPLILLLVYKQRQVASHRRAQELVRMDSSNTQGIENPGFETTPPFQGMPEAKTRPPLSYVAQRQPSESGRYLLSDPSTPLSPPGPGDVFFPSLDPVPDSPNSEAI
Kind of assay: flow cytometry, transfected 293t cells, 2 ug/ml; stain = MFI >=20-fold over isotype control. The protocol: (§1) To investigate epitope diversity of the anti-human C10orf54 antibodies, 293t cells were transfected with 1 of 10 different C10orf54 expression constructs that co-express a fluorescent marker. Two days after transfection, cells were stripped from the tissue culture plate, stained with 2 μg/ml anti-human C10orf54 antibody , washed, stained with anti-mouse IgG-Fc Alexa Fluor 647 polyclonal antibody, washed, and stained with the viability dye 4′,6-Diamidino-2-Phenylindole, Dihydrochloride. Upon acquisition of 10,000 live events on a flow cytometer, live cells marked with the fluorescent marker were analyzed for the degree of staining by the anti-human C10orf54 antibody. When the median fluorescence intensity fold-change relative to an isotype control antibody was at least 20-fold, the antibody was considered to stain the C10orf54 expression construct in question.
In general terms: In flow cytometry, cells or beads pass a laser one at a time.

Assay [3] has as its target T3, chimeric C10orf54: human with mouse loop (construct CC9) (human/mouse chimera, UniProt Q9H7M9 33-311).
T3 construct: also called C10orf54 Construct 9; hsC10mmLOOP
T3 chain: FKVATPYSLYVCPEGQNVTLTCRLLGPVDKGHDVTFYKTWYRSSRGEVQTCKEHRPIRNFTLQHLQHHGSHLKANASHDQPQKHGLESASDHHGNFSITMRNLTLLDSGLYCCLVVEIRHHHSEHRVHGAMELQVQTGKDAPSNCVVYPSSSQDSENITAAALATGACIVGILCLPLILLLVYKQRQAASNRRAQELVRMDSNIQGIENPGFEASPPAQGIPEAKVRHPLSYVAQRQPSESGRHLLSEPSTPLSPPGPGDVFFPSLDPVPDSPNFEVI
Described as above. The protocol:
as §1

The target in assay [4] is T4, chimeric C10orf54: first half of IgV human and remainder (including loop) mouse (construct CC7) (human/mouse chimera, UniProt Q9D659 33-308 (mouse entry)).
T4 construct: also called C10orf54 Construct 7; hsABCmmC10
T4 chain: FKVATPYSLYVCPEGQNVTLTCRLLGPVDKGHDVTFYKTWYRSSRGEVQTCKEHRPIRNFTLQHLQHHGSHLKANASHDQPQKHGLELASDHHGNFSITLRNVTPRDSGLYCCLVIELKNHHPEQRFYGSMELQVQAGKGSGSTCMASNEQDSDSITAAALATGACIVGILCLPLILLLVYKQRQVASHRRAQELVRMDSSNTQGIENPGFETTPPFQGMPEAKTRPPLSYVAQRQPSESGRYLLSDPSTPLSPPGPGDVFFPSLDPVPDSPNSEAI
The assay is described as above. The protocol:
as §1

For assay [5], the target named is T5, full length cynomolgus monkey C10orf54 (construct CC4) (cynomolgus monkey, UniProt Q9H7M9 33-311 (human entry)).
T5 construct: also called C10orf54 Construct 4
T5 chain: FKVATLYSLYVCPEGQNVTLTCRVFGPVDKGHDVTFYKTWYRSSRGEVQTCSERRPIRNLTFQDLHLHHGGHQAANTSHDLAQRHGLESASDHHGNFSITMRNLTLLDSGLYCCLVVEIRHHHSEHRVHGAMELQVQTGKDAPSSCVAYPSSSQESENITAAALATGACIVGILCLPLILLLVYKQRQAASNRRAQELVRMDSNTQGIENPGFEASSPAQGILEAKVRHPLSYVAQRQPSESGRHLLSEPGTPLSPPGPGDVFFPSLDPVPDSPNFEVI
The assay is described as above. The protocol:
as §1

Broadly, the Kd is a measure of binding affinity in units of concentration.

B1: murine monoclonal antibody 305A (antibody, V domains shown)
VH: DVQLQESGPGLVKPSQSLSLTCSVTGYSITSGYYWNWIRQFPGNKLEWMGYISYDGSNNYNPSLKNRISITRDTSKNQFFLKLNSVTTEDTATYYCARRHDYLSFAYWGQGTLVIVSA
VL: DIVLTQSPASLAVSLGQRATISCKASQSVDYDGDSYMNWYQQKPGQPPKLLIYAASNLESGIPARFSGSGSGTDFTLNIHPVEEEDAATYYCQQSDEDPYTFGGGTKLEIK
notes: Mouse hybridoma antibody
In the case of B1, in assay [1], the Kd is 20.8 nM. Besides, the binding result in assay [2], in assay [3], in assay [4] and in assay [5] was “binds” throughout.

Source of the values: US20190177415A1 (PIERRE FABRE MEDICAMENT, published 2019).
